B1: Amuc_1409: SEQ ID NO: 15, functional fragment obtained by eliminating the leader sequence from SEQ ID NO: 14; protein derived from Akkermansia muciniphila (protein)
chain: IPESSVPAAAVSSIKGAYPNAGPIEWDSEMHGMERIYEAEFRINGFQFDVKIAPDGKIVRIKEEIAASSLPEAVRASVLKRYPGCRIKEAEKITEGELVRYKVEVADSRDDYDVLIAPDGNILHVDR
modifications: Amuc_1409_fragment
notes: protein derived from Akkermansia muciniphila

Legend:
[1] = tested on: APP/PS1 Alzheimer's disease mice; assay: Novel object recognition test in APP/PS1 Alzheimer's disease mice; format: in vivo; settings: oral for 8 weeks; vs vehicle
Method: To 5-month-old APP/PS1 Alzheimer's disease male mice with amyloid deposition and cognitive and memory disorder in the brain, Amuc_1409 was orally administered to the mice by 5 μg daily 5 days a week for 8 weeks. PEP001 was dissolved in PBS buffer at a concentration of 2.4 μM, and then orally administered to the mice by 150 μL per animal 5 days a week for 8 weeks. To the control group (vehicle), PBS was orally administered in the same volume. In addition, normal mice (Non-Tg) not administered with the novel protein fragments were used as a control group.
In order to test the effect of improving cognitive function in APP/PS1 Alzheimer's disease mice administered with Amuc_1409 and PEP001, a novel object recognition test was performed. When the object seen 24 hours ago and a novel object were provided, the exploration time and the number of explorations for the novel object were measured to test cognition and memory.

C2C12 myoblasts = assay: Dexamethasone-induced atrophy gene expression in C2C12 myoblasts; format: cell-based; settings: 64 nM peptide together with dexamethasone (25 μM); RT-qPCR
Method: Myoblast C2C12 (myoblast) was dispensed into a 6 well plate, and then cultured in a DMEM medium containing 10% FBS and 1% antibiotics at 37° C. in a 10% CO2 incubator. Thereafter, in order to induce differentiation, the medium was replaced with a differentiation medium containing 2% horse serum, the C2C12 cells were treated with PEP004 and PEP005 at a concentration of 64 nM during the time for induction of differentiation, and formation of myotubes was observed.
After differentiation of myoblasts, the cells were treated with dexamethasone (25 μM), which causes muscle atrophy, and PEP004 and PEP005 simultaneously, and then RNA was extracted from the cells using Trizol. Reverse transcriptase was added to the obtained RNA and reacted to synthesize cDNA, and SYBR Green and primers were added to perform quantitative real-time PCR (RT-qPCR). Expression levels of Atrogin-1 and MuRF1, which are factors involved in muscle atrophy, were measured to determine whether atrophy of differentiated myoblasts was inhibited.

BTBR mice = assay: Social (sniffing) behavior in BTBR developmental disability model; format: in vivo; settings: oral, after 4 weeks of administration; vs vehicle
Method: In order to verify the efficacy of the peptides of the present invention on developmental disability, BTBR mice (BTBR T^+ltpr3^tf/J (BTBR)), a developmental disability model, were used as an experimental animal.
To 3-week-old male BTBR mice, Amuc_1409 was orally administered by 5 μg daily 5 days a week, and PBS (phosphate-buffered saline) was administered to the control group. PEP001, PEP002, PEP003, PEP004, and PEP005 were each dissolved in PBS buffer at a concentration of 2.4 μM and orally administered to the mice by 150 μL per animal at the same time once a day 5 days a week, and novel tetrapeptides PEP006, PEP007, PEP008, PEP009, and PEP010 and novel tripeptides PEP011 and PEP013 were each dissolved in PBS buffer at 0.2 μg/150 μL and orally administered to the mice by 150 μL per animal at the same time once a day 5 days a week. After 4 weeks of administration, behavioral evaluation was performed by observing the social behavior of the mice. The mice were allowed to freely consume sterilized feed and water in a breeding facility in a specific pathogen free environment where the temperature was maintained at 22° C. to 24° C., and were bred while maintaining a 12-hour day/night cycle.

[2] = tested on: Human skin keratin cell line (HaCaT); assay: UVB photoaging gene expression in human skin keratinocytes; format: cell-based; settings: 30 nM; UVB 10 mJ/cm^2; vs control group irradiated with UVB
Method: An experiment was conducted to examine the skin regeneration ability of the peptides of the present invention. Human skin keratin cell line (HaCaT) was cultured in DMEM medium containing 10% fetal bovine serum (FBS) and 1% penicillin-streptomycin at 37° C. and 5% CO2. When the cell density reached 80%, the cells were dispensed into a 6-well plate at 4×10^5 cells per well and cultured for 24 hours. After 24 hours, the cells were treated with Amuc 1409 at a concentration of 30 nM for 1 hour, washed twice with PBS (phosphate buffered saline) after 1 hour, and irradiated with ultraviolet light at 10 mJ/cm^2 using an ultraviolet (UVB) irradiation device (CL-1000 UV crosslinker; UVP, USA). After UV irradiation, the medium was replaced with serum-free medium, and the cells were immediately treated with Amuc_1409 for 8 hours.
In relation to skin wrinkles due to skin aging, in order to examine the expression of MMP-1 and MMP-3 genes, which are collagenase, and Col1a1 and Col3a1 genes, which are collagen synthesis enzymes, RNA was isolated from the cells in each well using Trizol (Invitrogen, USA) and quantified by nanodrop, and then cDNA was synthesized using 1 μg of each RNA. A mixture obtained by adding MMP-1, MMP-3, Col1a1 and Col3a1 primers and fluorescent dye AccuPower® 2× GreenStar™ qPCR Master Mix (BIONEER, Korea) to the synthesized cDNA was subjected to real-time polymerase chain reaction in a real-time PCR machine.

Row | Molecule | cognition and memory, novel object recognition test [1] | expression of Atrogin-1 (C2C12 myoblasts) | expression of MuRF1 (C2C12 myoblasts) | also measured
1 | AVSSIKGAY (PEP001) | significantly improved |  |  | 
2 | AVS (AVSSIKGAY) [PEP004] |  | significantly decreased | significantly decreased | 
3 | GAY [PEP005] |  | significantly decreased | significantly decreased | 
4 | B1 | significantly improved |  |  | social behavior (sniffing time and frequency) (BTBR mice): significantly increased or tended to increase; expression of Col1a1 gene [2]: significantly increased; expression of Col3a1 gene [2]: significantly increased; expression of MMP-1 gene [2]: significantly decreased; expression of MMP-3 gene [2]: significantly decreased
